Publication PMC3847938, “Biochemical and kinetic characterisation of a novel xylooligosaccharide-upregulated GH43 β-D-xylosidase/α-L-arabinofuranosidase (BXA43) from the probiotic Bifidobacterium animalis subsp. lactis BB-12” (AMB Express, 2013)

T1: BXA43 (Bifidobacterium animalis, UniProt B8DTK7)
T1 construct: gene xynB; full-length ORF 541 residues, C-terminal His-tag, pET24(+), E. coli BL21(DE3); theoretical mass 61,774 Da, about 62 kDa on SDS-PAGE
T1 sequence (B8DTK7 1-541): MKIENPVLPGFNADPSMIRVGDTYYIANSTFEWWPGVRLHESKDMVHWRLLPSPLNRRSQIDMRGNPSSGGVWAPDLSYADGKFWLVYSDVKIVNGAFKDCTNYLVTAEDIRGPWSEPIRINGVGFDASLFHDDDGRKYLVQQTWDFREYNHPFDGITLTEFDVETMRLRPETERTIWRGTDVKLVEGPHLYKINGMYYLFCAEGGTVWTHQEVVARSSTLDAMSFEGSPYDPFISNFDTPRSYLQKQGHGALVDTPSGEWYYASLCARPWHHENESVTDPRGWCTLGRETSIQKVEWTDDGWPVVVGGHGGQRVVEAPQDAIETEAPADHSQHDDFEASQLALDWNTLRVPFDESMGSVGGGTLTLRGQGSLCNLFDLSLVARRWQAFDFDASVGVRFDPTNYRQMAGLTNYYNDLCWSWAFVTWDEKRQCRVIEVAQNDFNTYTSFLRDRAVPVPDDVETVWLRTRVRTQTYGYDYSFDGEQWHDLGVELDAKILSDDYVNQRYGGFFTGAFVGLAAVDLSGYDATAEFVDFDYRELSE

B1: BXA43 (Bifidobacterium animalis subsp. lactis AD011) (protein)
chain: T1 sequence (B8DTK7 1-541)
notes: full-length ORF 541 residues, C-terminal His-tag, pET24(+), E. coli BL21(DE3); theoretical mass 61,774 Da, about 62 kDa on SDS-PAGE

Experiments:
BXA43 = target: T1, BXA43; experiment: p-nitrophenol release at […] nm, initial rates, fit with substrate inhibition; type: biochemical; details: 50 mM Na-acetate pH 5.2, 40 °C; substrate inhibition by pNPX itself (uncompetitive), second site
purified protein = substrate: O=[N+]([O-])c1ccc(O[C@@H]2OC[C@@H](O)[C@H](O)[C@H]2O)cc1; experiment: purified protein; type: biochemical, Bifidobacterium animalis; details: 50 mM Na-acetate pH 5.2, 40 °C, 0.25–80 mM pNPX, 7.8 nM enzyme, error printed as ± 4.6

Molecule | Ki (BXA43) [mM] | Km (purified protein) [mM] | kcat (purified protein) [s⁻¹]
O=[N+]([O-])c1ccc(O[C@@H]2OC[C@@H](O)[C@H](O)[C@H]2O)cc1 [para-nitrophenyl-β-D-xylopyranoside] | 29.6 ± 8.5 | – | –
B1 | – | 15.6 ± 4.2 | 60.6 ± 10.8
